± gives the uncertainty stated by the source.
assay: abundance fitness (aPCA) (normalised: wild type 0, dead -1); higher = more abundant; growth selection in yeast, the domain comes from the species named; conditions: Homo sapiens

Substance	abundance fitness
BAG family molecular chaperone regulator 3 N43L, O95817	-0.629 ± 0.12
BAG family molecular chaperone regulator 3 P23W, O95817	-0.692 ± 0.095
SAFB-like transcription modulator T23A, Q9NWH9	-0.063 ± 0.035
BAG family molecular chaperone regulator 3 P37Y, O95817	0.573 ± 0.18
BAG family molecular chaperone regulator 3 P24G, O95817	-0.77 ± 0.22
SAFB-like transcription modulator V44N, Q9NWH9	0.048 ± 0.058
BAG family molecular chaperone regulator 3 N43P, O95817	-0.42 ± 0.3
BAG family molecular chaperone regulator 3 G58H, O95817	-0.263 ± 0.1
SAFB-like transcription modulator I41N, Q9NWH9	-0.68 ± 0.2
SAFB-like transcription modulator E58W, Q9NWH9	-0.52 ± 0.076
BAG family molecular chaperone regulator 3 P32R, O95817	0.039 ± 0.074
SAFB-like transcription modulator R26S, Q9NWH9	-0.011 ± 0.071
SAFB-like transcription modulator D62F, Q9NWH9	-0.526 ± 0.073
BAG family molecular chaperone regulator 3 V12T, O95817	-0.52 ± 0.43
BAG family molecular chaperone regulator 3 D41I, O95817	-0.622 ± 0.45
SAFB-like transcription modulator S50L, Q9NWH9	-0.055 ± 0.075
SAFB-like transcription modulator L34E, Q9NWH9	-0.594 ± 0.087
SAFB-like transcription modulator I49Y, Q9NWH9	-0.076 ± 0.089
SAFB-like transcription modulator T23E, Q9NWH9	-0.001 ± 0.034
SAFB-like transcription modulator K35V, Q9NWH9	-0.11 ± 0.042

Substance	abundance fitness
BAG family molecular chaperone regulator 3 I30K, O95817	-0.087 ± 0.2
BAG family molecular chaperone regulator 3 I30A, O95817	-0.011 ± 0.11
SAFB-like transcription modulator T23L, Q9NWH9	-0.184 ± 0.031
SAFB-like transcription modulator G60F, Q9NWH9	-0.584 ± 0.06
BAG family molecular chaperone regulator 3 S56L, O95817	-0.125 ± 0.14
BAG family molecular chaperone regulator 3 G58A, O95817	-0.45 ± 0.15
SAFB-like transcription modulator G19S, Q9NWH9	-0.003 ± 0.064
SAFB-like transcription modulator T46A, Q9NWH9	-0.062 ± 0.068
BAG family molecular chaperone regulator 3 D41P, O95817	-0.65 ± 0.16
BAG family molecular chaperone regulator 3 V40D, O95817	-0.808 ± 0.42
BAG family molecular chaperone regulator 3 E27K, O95817	-0.42 ± 0.23
SAFB-like transcription modulator K35T, Q9NWH9	-0.474 ± 0.13
SAFB-like transcription modulator D24P, Q9NWH9	-0.598 ± 0.033
SAFB-like transcription modulator I49R, Q9NWH9	-0.148 ± 0.054
BAG family molecular chaperone regulator 3 P37A, O95817	0.4 ± 0.12
BAG family molecular chaperone regulator 3 D18N, O95817	0.148 ± 0.068
SAFB-like transcription modulator E57A, Q9NWH9	-0.085 ± 0.082
SAFB-like transcription modulator L39R, Q9NWH9	-0.296 ± 0.05
SAFB-like transcription modulator L48S, Q9NWH9	-0.585 ± 0.039
